Results on two substances are retold here after US20040157289.

Series [1] is described as follows: aggregate size given for comparison with the gel exclusion result, self-association.
Series [2] can be described thus: Superose gel exclusion chromatography, self-association.

Consider “wild type α-crystallin (alpha A crystallin)”, for which the aggregate size result in series [1] is recorded as “about 800,000 daltons, depending on solution conditions”.
Consider alpha A crystallin Δ51+ construct, for which the aggregate size entry in series [2] is given as “calculated to be 60,000 daltons, which corresponds in size to a tetramer”.
